From publication PMC10531723

Biological target: PrP-CFP (mouse PrP(23-231) fused to CFP) (mouse) (UniProt P04925)
Test: FRET or BRET

Substance: PrP-YFP (mouse PrP(23-231) fused to YFP) (from UniProt P04925 23-231) (domain or fragment)
- FRET efficiency: 31%
